Measured values taken from article PMC11359516, “Methionine Synthase 2 Represses Stem Cell Maintenance of Arabidopsis thaliana in Response to Salt Stress” (Plants, 2024).
One block for each binder: values may come before it.

Assays:
[1] = target: T1, GST:AtMS2 (Arabidopsis METHIONINE SYNTHASE 2 fused with GST) (Arabidopsis thaliana, UniProt Q9SRV5 1-765); test: pull-down; MBP fusions or MBP immobilised on amylose resin, incubated with GST:AtMS2; 50 mM Tris-HCl pH 7.4, 200 mM NaCl, 5.0% glycerol, 1.5% Triton X-100, 10 mM NaF, 1.0 mM Na3VO4, 1.0 mM PMSF; 1.5 h at 4 °C; immunoblot with anti-GST antibody; details: both partners purified
T1 construct: METHIONINE SYNTHASE 2 (AtMS2), Arabidopsis thaliana, At3g03780; AtMS2 cDNA cloned into pGEX-4T-1; also called AtMS2 protein fused with GST; AtMS2 in fusion with GST; source: E. coli BL21, purified (glutathione resin)
T1 sequence (looked up): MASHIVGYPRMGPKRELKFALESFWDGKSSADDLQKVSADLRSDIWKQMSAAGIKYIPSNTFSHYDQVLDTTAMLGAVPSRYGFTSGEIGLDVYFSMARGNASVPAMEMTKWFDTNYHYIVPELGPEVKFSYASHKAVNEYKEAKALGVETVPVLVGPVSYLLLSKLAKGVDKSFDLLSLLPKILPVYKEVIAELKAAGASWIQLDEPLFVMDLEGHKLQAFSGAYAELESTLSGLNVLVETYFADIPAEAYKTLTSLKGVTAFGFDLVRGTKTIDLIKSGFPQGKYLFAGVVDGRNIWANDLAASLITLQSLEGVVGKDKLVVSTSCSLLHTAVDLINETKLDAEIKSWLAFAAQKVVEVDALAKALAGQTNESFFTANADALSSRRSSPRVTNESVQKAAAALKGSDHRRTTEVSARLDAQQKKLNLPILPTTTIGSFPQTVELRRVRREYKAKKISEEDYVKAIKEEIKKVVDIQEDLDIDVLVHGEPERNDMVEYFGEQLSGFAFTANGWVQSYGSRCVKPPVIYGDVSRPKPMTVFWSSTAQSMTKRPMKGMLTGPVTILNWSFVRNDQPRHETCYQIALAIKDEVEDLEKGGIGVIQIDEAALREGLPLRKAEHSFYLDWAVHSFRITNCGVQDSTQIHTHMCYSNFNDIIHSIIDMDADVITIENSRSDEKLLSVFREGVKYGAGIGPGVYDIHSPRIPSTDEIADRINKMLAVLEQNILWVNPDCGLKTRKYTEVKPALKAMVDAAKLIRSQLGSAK

MBP:AtMS2 = target: T2, MBP:AtMS2 (Arabidopsis thaliana, UniProt Q9SRV5 1-765); test: native gel or EMSA; super shift of a Texas red-labeled WUS or WOX5 promoter probe; 20 uL binding buffer (10 mM Hepes-KOH pH 7.8, 20 mM KCl, 10 mM MgCl2, 1 mM DTT, 0.1% BSA, 5% glycerol, 0.5% Triton-X100, 20 ng/uL salmon sperm DNA), 22 °C, 30 min; 6% polyacrylamide gel; details: both partners purified
T2 construct: METHIONINE SYNTHASE 2 (AtMS2), Arabidopsis thaliana, At3g03780; cloned into the pMBP-c vector; source: E. coli BL21, purified (amylose resin)
T2 sequence (looked up): T1 sequence (looked up)

binding result [1]: binds
B1: MBP:WOX4 (natural protein, Arabidopsis thaliana, UniProt Q6X7J9 1-251, looked up)
chain: MKVHEFSNGFSSSWDQHDSTSSLSLSCKRLRPLAPKLSGSPPSPPSSSSGVTSATFDLKNFIRPDQTGPTKFEHKRDPPHQLETHPGGTRWNPTQEQIGILEMLYKGGMRTPNAQQIEHITLQLGKYGKIEGKNVFYWFQNHKARERQKQKRNNLISLSCQSSFTTTGVFNPSVTMKTRTSSSLDIMREPMVEKEELVEENEYKRTCRSWGFENLEIENRRNKNSSTMATTFNKIIDNVTLELFPLHPEGR
notes: WUSCHEL-RELATED HOMEOBOX 4 (WOX4), Arabidopsis thaliana, At1g46480; cloned into the pMBP-c vector; also called MBP-tagged WOX4; source: E. coli BL21, purified (amylose resin)

binding result [1]: binds
binding result (MBP:AtMS2): binds
B2: MBP:WOX5 (natural protein, Arabidopsis thaliana, UniProt Q8H1D2 1-182, looked up)
chain: MSFSVKGRSLRGNNNGGTGTKCGRWNPTVEQLKILTDLFRAGLRTPTTDQIQKISTELSFYGKIESKNVFYWFQNHKARERQKRRKISIDFDHHHHQPSTRDVFEISEEDCQEEEKVIETLQLFPVNSFEDSNSKVDKMRARGNNQYREYIRETTTTSFSPYSSCGAEMEHPPPLDLRLSFL
notes: WUSCHEL-RELATED HOMEOBOX 5 (WOX5), Arabidopsis thaliana, At3g11260; cloned into the pMBP-c vector; also called MBP-tagged WOX5; source: E. coli BL21, purified (amylose resin)

binding result [1]: binds
binding result (MBP:AtMS2): binds
B3: MBP (maltose-binding protein):WUS fusion protein (natural protein, Arabidopsis thaliana, UniProt Q9SB92 1-292, looked up)
chain: MEPPQHQHHHHQADQESGNNNNNKSGSGGYTCRQTSTRWTPTTEQIKILKELYYNNAIRSPTADQIQKITARLRQFGKIEGKNVFYWFQNHKARERQKKRFNGTNMTTPSSSPNSVMMAANDHYHPLLHHHHGVPMQRPANSVNVKLNQDHHLYHHNKPYPSFNNGNLNHASSGTECGVVNASNGYMSSHVYGSMEQDCSMNYNNVGGGWANMDHHYSSAPYNFFDRAKPLFGLEGHQEEEECGGDAYLEHRRTLPLFPMHGEDHINGGSGAIWKYGQSEVRPCASLELRLN
notes: WUSCHEL (WUS), Arabidopsis thaliana, At2g17950; cloned into the pMBP-c vector; also called MBP:WUS; MBP-tagged WUS; source: E. coli BL21, purified (amylose resin)
